This experiment has as its target T1, polypeptide S29 (HBcAg-aa141-aa154) (hepatitis B virus).
T1 peptide: STLPETTVVRRRGR
In words: indirect ELISA on coated peptide, antibody 1 ug/mL; positive if measured/background > 5.

This note sets out measurements from patent US20230069418A1 (XIAMEN INNODX BIOTECH, published 2023).

B1: 2A7 monoclonal antibody (antibody, V domains shown)
VH: QVQLQQPGAELVKPGASVKLSCKASGYTFTRYWMHWVMQRPGQDLEWIGEINPINGRTNYNEKFRRKATLTVDKSSSTVYIQFSSLTSEDSAVYFCTREGYRNDYYYAMDFWGRGTSVTVSS
VL: DIQMTQTSSSLSASPGDRVTISCRASQGINNYLNWYKQKTDGTFKLLIYYTSYLHSGVPSRFSGRGSGTDYSLTISNLEPEDVATYYCQQYGKLPWTFGGGTKLEIK
notes: also called HBc-2A7; 2A7-21
Turning to B1, the binding result was “binds”.
